Among the data in the RNAGym collection of RNA variant scans (doi:10.7554/elife.90254) are self-cleavage values, retold here.

The labels stand for the following.
B1: LINE1-full (parent)
chain: UACGUAGGUGGUUUUCCCCUGAUAGUGCUAAGGGGGCCUGGAAGUUUGGACUGGGCAGAGCUCAACACAGCGUGGCAAAGUGGCUGUGGCUAGACUGCCUCUCUGGAUUCCUCGUCACUCAGCAGGGCAUCUCUGAGAGAAAUGCC

The variants in this data set derive from B1. As to the kind of experiment: self-cleavage, relative activity (ratio to wild type); higher = more cleavage; in vitro, sequencing; the parent is a self-cleaving ribozyme.
On to UACGUAGGUGGUUUUCCCCUGAUAGUGCUAAGGGGGCCUGGAAGUUUGGACUGGGCAGAGCUCAACACAGCGUGGUAAAGUGGCUGUGGCUAGACUGCCUCUCUGGAUUCCUCGUCACUCAGCAGGGCAUCUCUGAGAGAAAAGCC [C76U U143A], for which the self-cleavage came out at 2.12.

As to UACGUAGGUGGUUUUCCCCUGAUAGUGCUAAGGGGGCCUGGAAGUUUGGACUGGGCAGAGCUCAACACAGCGUGGUAAAGUGGCUGUGGCUAGACUGCCUCUCUGGAUUCCUCGUCACUCAGCAGGGCACCUCUGAGAGAAAUGCC [C76U U130C], the self-cleavage amounted to 2.22. As to UACGUAGGUGGUUUUCCCCUGAUAGUGCUAAGGGGGCCUGGAAGUUUGGACUGGGCAGAGCUCAACACAGCGUGGUAAAGUGGCUGUGGCUAGACUGCCCCUCUGGAUUCCUCGUCACUCAGCAGGGCAUCUCUGAGAGAAAUGCC [C76U U100C], the self-cleavage came to 2.91. On to UACGUAGGUGGUUUUCCCCUGAUAGUGCUAAGGGGGCCUGGAAGUUUGGACUGGGCAGAGCUCAACACAGCGUGGUAAAGUGGCUGUGGCUAGACUGCCUCUCUGGAUUCCUCGUCACCCAGCAGGGCAUCUCUGAGAGAAAUGCC [C76U U119C], for which the self-cleavage stood at 2.91. Regarding UACGUAGGUGGUUUUCCCCUGAUAGUGCUAAGGGGGCCUGGAAGUUUGGACUGGGCAGAGCUCAACACAGCGUGGUAAAGUGGCUGUGGCUAGACUGCCUCUCUGGAUUCCUCGUCACUCAGCAGGGCAUCUCUGAUAGAAAUGCC [C76U G137U], the self-cleavage was 1.87. UACGUAGGUGGUUUUCCCCUGAUAGUGCUAAGGGGGCCUGGAAGUUUGGACUGGGCAGAGCUCAACACAGCGUGGCCAAGUGGCUGUGGCUAGACUGCCUCUCUGGAUUCCUCGUCACUCAGCAGGGCAUCUCUGAGAGAAAUGCC [A77C]: the self-cleavage was 0.98. The result for UACGUAGGUGGUUUUCCCCUGAUAGUGCUAAGGGGGCCUGGAAGUUUGGACUGGGCAGAGCUCAACACAGCGUGGUAAAGUGGCUGUGGCUAGACUGCCUCUCUGGAUUCCUCGCCACUCAGCAGGGCAUCUCUGAGAGAAAUGCC [C76U U115C] reads 2.12; that for UACGUAGGUGGUUUUCCCCUGAUAGUGCUAAGGGGGCCUGGAAGUUUGGACUGGGCAGAGCUCAACACAGCGUGGCCAAGUGGCUGUGGCAAGACUGCCUCUCUGGAUUCCUCGUCACUCAGCAGGGCAUCUCUGAGAGAAAUGCC [A77C U91A], 0.38; that for UACGUAGGUGGUUUUCCCCUGAUAGUGCUAAGGGGGCCUGGAAGUUUGGACUGGGCAGAGCUCAACACAGCGUGGUAAAGUGGCUGUGGCUAGACCGCCUCUCUGGAUUCCUCGUCACUCAGCAGGGCAUCUCUGAGAGAAAUGCC [C76U U96C], 0.13. Take UACGUAGGUGGUUUUCCCCUGAUAGUGCUAAGGGGGCCUGGAAGUUUGGACUGGGCAGAGCUCAACACAGCGUGGUAAAGUGGCUGUGGCUAGACAGCCUCUCUGGAUUCCUCGUCACUCAGCAGGGCAUCUCUGAGAGAAAUGCC [C76U U96A]: the self-cleavage was 0.05. For the variant UACGUAGGUGGUUUUCCCCUGAUAGUGCUAAGGGGGCCUGGAAGUUUGGACUGGGCAGAGCUCAACACAGCGUGGCCAAGUGGCUGUGGCUAGACUGCCUCUCUGGAUUCCUCGUCACUCGGCAGGGCAUCUCUGAGAGAAAUGCC [A77C A121G], the self-cleavage worked out at 1.55.

Take UACGUAGGUGGUUUUCCCCUGAUAGUGCUAAGGGGGCCUGGAAGUUUGGACUGGGCAGAGCUCAACACAGCGUGGCCAAGUGGCAGUGGCUAGACUGCCUCUCUGGAUUCCUCGUCACUCAGCAGGGCAUCUCUGAGAGAAAUGCC [A77C U85A]: the self-cleavage was found to be 0.18. Regarding UACGUAGGUGGUUUUCCCCUGAUAGUGCUAAGGGGGCCUGGAAGUUUGGACUGGGCAGAGCUCAACACAGCGUGGCCAAGUGGCUGUGGCUAGACCGCCUCUCUGGAUUCCUCGUCACUCAGCAGGGCAUCUCUGAGAGAAAUGCC [A77C U96C], the self-cleavage stood at 0.09. The result for UACGUAGGUGGUUUUCCCCUGAUAGUGCUAAGGGGGCCUGGAAGUUUGGACUGGGCAGAGCUCAACACAGCGUGGCCAAGUGGCUGUGGCUAGACUGCCUCUCUGGAUUCCUCGUCACUCAGCAGGGCAUCUCUGAGAGGAAUGCC [A77C A140G] reads 1.16.

As to UACGUAGGUGGUUUUCCCCUGAUAGUGCUAAGGGGGCCUGGAAGUUUGGACUGGGCAGAGCUCAACACAGCGUGGCCAAGUGGCUGUGGCUAGACUGCCUCUCUGGAUUCCUCGUCACUCAGCAGAGCAUCUCUGAGAGAAAUGCC [A77C G126A], the self-cleavage amounted to 1.25. Then UACGUAGGUGGUUUUCCCCUGAUAGUGCUAAGGGGGCCUGGAAGUUUGGACUGGGCAGAGCUCAACACAGCGUGGCCAAGUGGCUGUGGCUAGACUGCCUCUCUGGAUUCCUCGUCACUCAGCGGGGCAUCUCUGAGAGAAAUGCC [A77C A124G], with 0.32; and UACGUAGGUGGUUUUCCCCUGAUAGUGCUAAGGGGGCCUGGAAGUUUGGACUGGGCAGAGCUCAACACAGCGUGGCCAAGUGGCUGUGGCUAAACUGCCUCUCUGGAUUCCUCGUCACUCAGCAGGGCAUCUCUGAGAGAAAUGCC [A77C G93A], with 0.06. Turning to UACGUAGGUGGUUUUCCCCUGAUAGUGCUAAGGGGGCCUGGAAGUUUGGACUGGGCAGAGCUCAACACAGCGUGGUAAAGUGGCUGUGGCUAGACUGCCUAUCUGGAUUCCUCGUCACUCAGCAGGGCAUCUCUGAGAGAAAUGCC [C76U C101A], the self-cleavage was determined as 1.6. The result for UACGUAGGUGGUUUUCCCCUGAUAGUGCUAAGGGGGCCUGGAAGUUUGGACUGGGCAGAGCUCAACACAGCGUGGUAAAGUGGCUGUGGCUAGACUGCCUCUCUGGAUUCCACGUCACUCAGCAGGGCAUCUCUGAGAGAAAUGCC [C76U U112A] reads 2.4; that for UACGUAGGUGGUUUUCCCCUGAUAGUGCUAAGGGGGCCUGGAAGUUUGGACUGGGCAGAGCUCAACACAGCGUGGUAAAGUGGCUGUGGCUAGACUGCCUCUCUGGAUUCCUCGUCACUCAGCAGGGCAUCACUGAGAGAAAUGCC [C76U U132A], 2.54.
